Entries after “also recorded” stand apart in the source; their conditions may differ.
Legend:
PB/GYAR = experiment: Virus-defensin binding assay, PB/GYAR; parameters: species or system human adenovirus; details: studies equivalent to Figure 2B, data not shown
Method: We then combined the GYAR substitution with the PB substitution in a single construct (PB/GYAR).
To measure HD5 binding to HAdV-5 and -51, HD5 was serially diluted in PBS and mixed with 5 µg purified virus. After 1 h incubation on ice, one half of each sample was separated by ultracentrifugation [209,000×g (avg.) for 2 hrs at 4°C] on a discontinuous gradient consisting of 300 µl of 30% nycodenz and 200 µl of 80% nycodenz in 50 mM NaCl, 20 mM HEPES pH 7.4 using an SW55ti rotor with adaptors (Beckman Coulter, Inc.). The visible virus band was collected. The other half of each sample was used to make a standard curve for quantification. All samples were boiled in reducing loading buffer and separated using a 16% PAGEgel (Expedeon, Inc., San Diego, CA) or 10–20% Tris-Tricine gel (Bio-Rad, Hercules, CA). The gels were stained with Deep Purple (GE Healthcare) and imaged on a Typhoon Trio. Virus bands were quantified using ImageQuant NT software (GE Healthcare). The amount of HD5 in each sample was normalized to protein V and hexon. The amount of HD5 in the centrifuged samples was then quantified against the standard curve using Prism software. Affinity and stoichiometry were estimated from the average data of at least three independent experiments using Prism software.

HAdV species A = experiment: Infection assay (hexon staining), HAdV species A; assay type: cell-based, human adenovirus; details: 15 µM HD5, A549 cells, hexon staining at ~48 h, vs. no defensin, at least three independent experiments
Method: To determine whether sensitivity to α-defensins is a general property of HAdVs, serotypes representative of HAdV species A–F were tested for infectivity in the presence of 15 µM HD5 or HNP1 (Figure 1). Wild type HAdVs rather than vectors were used for these studies, and infectivity was assessed by staining for hexon production. […] These studies indicate that sensitivity to α-defensins is species specific. In addition, particular HAdV serotypes are not equally sensitive to all defensins, indicating defensin sequence specificity as well.
Figure 1 Sensitivity to neutralization by alpha-defensins is AdV species specific. HAdVs were incubated with 15 µM HD5 (A) or HNP1 (B) and assessed for infectivity on A549 cells. Data are the mean of the percent infectivity compared to control cells infected with each virus in the absence of defensin for at least three independent experiments ± SD. The upper limit for quantification of this assay is 200%. […]
Prior to use in this assay, each virus stock was titrated on A549 cells. […] In parallel, wells were infected with two-fold serial dilutions of each virus to establish a standard curve for quantification with an upper limit of 200%. […] Total well fluorescence above background was quantified with ImageJ software. For each virus, samples were quantified by nonlinear regression against the standard curve using Prism software (GraphPad Software, Inc., La Jolla, CA).

[1] = test system: binding of HAdV-5 to A549 cells (CAR receptor); experiment: Fiber knob competition assay: binding of labeled HAdV-5 to cells; assay type: cell-based, human
Method: Figure 3 HD5 antiviral activity is structure dependent. A) Ribbon representation of HD5 (PDB 1ZMP). Three disulfide bonds are numbered, and the two residues comprising the conserved salt bridge (R6 and E14) are indicated. B) Ad5.eGFP was incubated with 15 µM of each of the indicated defensins. HD5-Abu is HD5 with the six cysteines replaced with L-α-aminobutyric acid. Data are the mean percent of eGFP positive cells compared to control cells infected in the absence of defensin for at least three independent experiments ± SD. C) Binding of Alexa Fluor 488-labeled HAdV-5 to cells was assessed after incubation with or without 20 µM HD5 or HD5-Abu and in competition with 100 nM 5FK or 16 FK. Data are the mean fold increase in geometric mean fluorescence compared to cells alone and are of at least 10,000 cells from each of three independent experiments ± SD.
In order to determine the receptor-dependence of this effect, we pre-incubated cells with recombinant fiber knob from HAdV-5 (5FK) to block receptor (CAR) interactions and measured cell binding of fluorescently labeled HAdV-5 that was pre-incubated with or without HD5 or HD5-Abu (Figure 3C). Cells incubated with fiber knob from HAdV-16 (16FK), which binds CD46, served as a control. We observed that virus binding to cells was reduced 5.2-fold in the presence of 5FK compared to 16FK. […]

[2] = ref [40], [44]; cited from earlier work
Excerpt: The extensive difference density attributable to HD5 in our cryoEM analysis of Ad5.F35+HD5 is consistent with our estimated stoichiometry. HD5 binding sites were found on all of the major proteins of the capsid. […] The accumulation of HD5 difference density was not equal among the four unique hexon positions in the asymmetric unit but rather was greatest on the peripentonal hexons. Since the possible binding sites presented by each hexon a ...

B1: HD5: human alpha-defensin; synthetic, obtained from Peptides International; three disulfide bonds (PDB 1ZMP) (peptide, UniProt Q01523 20-94, looked up)
Defensin alpha 5: ESLQERADEATTQKQSGEDNQDLAISFAGNGLSALRTSGSQARATCYCRTGRCATRESLSGVCEISGRLYRLCCR
modifications: Defensin-5
- amount of HD5 bound compared to HAdV-5 (PB/GYAR): did not detect a reduction in the amount of HD5 bound; also recorded: did not result in a noticeable reduction in overall HD5 binding
- sensitivity to neutralization (infectivity) (HAdV species A): sensitive
- interaction with CAR receptor in presence of HD5 ([1]; 20 µM HD5, competition with 5FK): does not completely block the interaction with CAR receptor; also recorded: capacity of fiber to bind to CAR was not compromised by HD5 binding
- effect on virus binding to cells ([1]; virus pre-incubated with 20 µM HD5 or HD5-Abu, Alexa Fluor 488, fold increase in geometric mean fluorescence, three independent experiments): increased virus binding to cells; also recorded: enhanced by HD5
- concentration at which HD5 forms dimers and tetramers [2]: below 5 µM

Source: publication PMC2891831, “Insight into the Mechanisms of Adenovirus Capsid Disassembly from Studies of Defensin Neutralization” (PLoS Pathogens, 2010)
